According to publication PMC8733265, “Microscale thermophoresis suggests a new model of regulation of cardiac myosin function via interaction with cardiac myosin-binding protein C” (The Journal of Biological Chemistry, 2021):
Each block holds one molecule with its values, some of them ahead of it.

T1: C5C7 segment of cMyBP-C (UniProt Q14896 645-967)
T1 construct: also called C5–C6–C7; wildtype C5C7; source: E. coli BL21(DE3)-RIPL, purified (HisTrapFF, TEV, ion exchange); not shown: His tag, N-terminal, cleaved
T1 sequence (looked up): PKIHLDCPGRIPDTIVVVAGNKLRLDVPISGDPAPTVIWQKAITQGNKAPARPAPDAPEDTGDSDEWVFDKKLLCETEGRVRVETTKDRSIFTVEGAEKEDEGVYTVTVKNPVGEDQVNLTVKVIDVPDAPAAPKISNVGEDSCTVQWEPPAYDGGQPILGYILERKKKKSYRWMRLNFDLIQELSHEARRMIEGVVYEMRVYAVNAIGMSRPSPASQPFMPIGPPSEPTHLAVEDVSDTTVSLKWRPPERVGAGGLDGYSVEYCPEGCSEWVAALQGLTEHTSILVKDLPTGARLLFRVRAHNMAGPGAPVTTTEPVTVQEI

B1: recombinant human cardiac myosin tail domain, first 126 amino acids of myosin subfragment-2 (myosin S2Δ) (domain or fragment, UniProt P12883 838-963, looked up)
chain: PLLKSAEREKEMASMKEEFTRLKEALEKSEARRKELEEKMVSLLQEKNDLQLQVQAEQDNLADAEERCDQLIKNKIQLEAKVKEMNERLEDEEEMNAELTAKKRKLEDECSELKRDIDDLELTLAK
modifications: Alexa 647-NHS label where it was the labelled partner; unlabelled where it was titrated
notes: human cardiac (β) myosin heavy chain, first 126 amino acids of subfragment-2; also called myosin tails; source: E. coli BL21(DE3)-RIPL, purified (HisTrapFF, TEV, ion exchange); not shown: His tag, N-terminal, cleaved
B2: miniHMM, recombinant fragment of human cardiac myosin containing the myosin S2Δ tail domain bound to two RLCs (complex)
chain 1: RDSLLVIQWNIRAFMGVKNWPWMKLYFKIKPLLKSAEREKEMASMKEEFTRLKEALEKSEARRKELEEKMVSLLQEKNDLQLQVQAEQDNLADAEERCDQLIKNKIQLEAKVKEMNERLEDEEEMNAELTAKKRKLEDECSELKRDIDDLELTLAK
chain 2: APKKAKKRAGGANSNVFSMFEQTQIQEFKEAFTIMDQNRDGFIDKNDLRDTFAALGRVNVKNEEIDEMIKEAPGPINFTVFLTMFGEKLKGADPEETILNAFKVFDPEGKGVLKADYVREMLTTQAERFSKEEVDQMFAAFPPDVTGNLDYKNLVHIITHGEEKD
modifications: Limits not printed. C-terminus from S2Δ as the first 126 residues of S2 (838-963 by convention). N-terminus taken at the start of the RLC-binding heavy-chain helix (about 808). RLC initiator Met …
B3: isolated m-motif of cMyBP-C (domain or fragment)
chain: HEAMGTGDLDLLSAFRRTSLAGGGRRISDSHEDTGILDFSSLLKKRDSFRTPRDSKLEAPAEEDVWEILRQAPPSEYERIAFQYGVTDLRGMLKRLKGMRRDEKK
modifications: here or on the partner: Unphosphorylated (bacterial expression). Limits taken as the interval between the annotated C1 (153-256) and C2 (362-452) domains. / Limits not printed. C-terminus from S2Δ as the first 126 residues o
B4: isolated m-motif of cMyBP-C (domain or fragment)
chain: B3 chain

Columns and labels:
[1] = biological target: bovine β-cardiac myosin S1 (bovine) (UniProt Q9BE39); experiment: MST; Monolith NT.115; 100 nmol/l Alexa647-labelled protein fixed, partner titrated; 20 mmol/l Mops pH 7, 1 mmol/l MgCl2, 50 mmol/l KCl, 1 mmol/l DTT, 0.05% Tween-20
bovine β-cardiac myosin S1 (bovine), sequence (Q9BE39 whole entry, chain 1 of 2, the tested form may be a part): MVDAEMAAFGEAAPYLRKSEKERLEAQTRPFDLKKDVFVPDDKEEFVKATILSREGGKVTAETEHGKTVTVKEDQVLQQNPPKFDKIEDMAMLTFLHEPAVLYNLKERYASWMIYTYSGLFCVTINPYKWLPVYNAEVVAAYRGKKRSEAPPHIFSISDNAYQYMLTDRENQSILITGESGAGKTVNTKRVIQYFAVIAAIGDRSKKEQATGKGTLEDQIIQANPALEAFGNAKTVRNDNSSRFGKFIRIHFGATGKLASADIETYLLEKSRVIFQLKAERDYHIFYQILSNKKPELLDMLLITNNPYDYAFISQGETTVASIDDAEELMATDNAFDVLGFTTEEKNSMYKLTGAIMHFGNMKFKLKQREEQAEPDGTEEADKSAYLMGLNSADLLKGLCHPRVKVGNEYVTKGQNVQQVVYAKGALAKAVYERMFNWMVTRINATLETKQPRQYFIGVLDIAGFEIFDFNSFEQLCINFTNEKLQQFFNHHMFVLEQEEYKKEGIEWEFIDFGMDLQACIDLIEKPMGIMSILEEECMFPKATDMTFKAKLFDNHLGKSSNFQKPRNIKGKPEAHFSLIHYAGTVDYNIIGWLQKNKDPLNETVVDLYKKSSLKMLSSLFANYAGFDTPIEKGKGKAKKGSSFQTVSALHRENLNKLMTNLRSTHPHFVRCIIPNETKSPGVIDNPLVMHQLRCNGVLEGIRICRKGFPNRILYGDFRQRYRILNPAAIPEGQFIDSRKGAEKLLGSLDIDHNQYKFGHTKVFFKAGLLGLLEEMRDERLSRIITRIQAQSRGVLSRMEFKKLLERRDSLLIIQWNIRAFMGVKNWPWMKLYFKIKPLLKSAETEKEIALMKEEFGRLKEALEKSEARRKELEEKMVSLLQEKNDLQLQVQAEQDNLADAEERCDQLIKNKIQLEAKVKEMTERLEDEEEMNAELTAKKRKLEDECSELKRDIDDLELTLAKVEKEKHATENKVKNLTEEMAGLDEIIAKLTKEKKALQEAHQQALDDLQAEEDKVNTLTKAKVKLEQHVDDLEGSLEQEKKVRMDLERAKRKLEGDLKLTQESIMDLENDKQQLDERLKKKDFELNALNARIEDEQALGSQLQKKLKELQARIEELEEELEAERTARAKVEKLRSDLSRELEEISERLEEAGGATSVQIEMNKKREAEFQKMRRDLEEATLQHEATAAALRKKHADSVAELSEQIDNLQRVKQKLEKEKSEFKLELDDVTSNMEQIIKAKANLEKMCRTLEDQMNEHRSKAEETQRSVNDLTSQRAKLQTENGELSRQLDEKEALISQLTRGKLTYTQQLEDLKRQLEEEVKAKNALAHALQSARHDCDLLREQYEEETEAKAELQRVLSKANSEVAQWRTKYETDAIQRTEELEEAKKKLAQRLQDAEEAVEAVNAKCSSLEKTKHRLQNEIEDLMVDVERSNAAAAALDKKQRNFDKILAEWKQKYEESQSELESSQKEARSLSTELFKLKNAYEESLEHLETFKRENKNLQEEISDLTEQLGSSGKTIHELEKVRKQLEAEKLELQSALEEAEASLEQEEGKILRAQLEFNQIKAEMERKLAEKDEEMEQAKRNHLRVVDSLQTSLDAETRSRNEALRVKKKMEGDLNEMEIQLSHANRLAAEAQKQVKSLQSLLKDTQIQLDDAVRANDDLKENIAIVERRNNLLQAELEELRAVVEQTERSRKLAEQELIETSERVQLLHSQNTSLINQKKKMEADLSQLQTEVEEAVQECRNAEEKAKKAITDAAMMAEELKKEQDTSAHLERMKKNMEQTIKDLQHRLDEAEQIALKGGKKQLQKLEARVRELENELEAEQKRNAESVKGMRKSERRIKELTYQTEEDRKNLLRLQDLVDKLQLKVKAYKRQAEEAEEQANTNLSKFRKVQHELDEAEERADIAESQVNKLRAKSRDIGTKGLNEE
bovine β-cardiac myosin S1 (bovine), sequence (P85100 whole entry, chain 2 of 2, further chain, the tested form may be a part): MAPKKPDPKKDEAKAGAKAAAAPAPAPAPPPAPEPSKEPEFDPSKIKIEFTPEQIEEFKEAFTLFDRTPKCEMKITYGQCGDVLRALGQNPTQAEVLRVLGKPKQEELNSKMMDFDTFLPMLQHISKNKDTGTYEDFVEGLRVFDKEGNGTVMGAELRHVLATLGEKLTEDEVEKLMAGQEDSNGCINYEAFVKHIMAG

[2] = biological target: recombinant human cardiac myosin tail domain, first 126 amino acids of myosin subfragment-2 (myosin S2Δ) (human) (UniProt P12883); experiment: as above
[3] = biological target: bovine β-cardiac myosin S1 (bovine) (UniProt Q9BE39); experiment: MST; competition: C5C7 titrated into a mixture of Alexa647-labelled myosin S1 and C2C4
[4] = biological target: human cardiac myosin tail domain (myosin S2Δ; also the heavy-chain part of miniHMM) miniHMM heavy-chain part containing myosin S2Δ (UniProt P12883); experiment: microscale thermophoresis titration; conditions: reference: unphosphorylated C0C2
[5] = biological target: bovine β-cardiac myosin S1 myosin S1 (head domain) (UniProt Q9BE39); experiment: microscale thermophoresis titration; conditions: reference: unphosphorylated C0C2
[6] = biological target: human cardiac myosin tail domain (myosin S2Δ; also the heavy-chain part of miniHMM) miniHMM heavy-chain part containing myosin S2Δ (UniProt P12883); experiment: microscale thermophoresis titration; conditions: reference: unphosphorylated C0C2; remark: listed apart in the source
[7] = biological target: cMyBP-C (cardiac myosin-binding protein C) C0C2 (C0-P/A-C1-m-C2) (UniProt Q14896); experiment: microscale thermophoresis titration; conditions: reference: unphosphorylated miniHMM
[8] = biological target: cMyBP-C (cardiac myosin-binding protein C) C0C2 (C0-P/A-C1-m-C2) (UniProt Q14896); experiment: microscale thermophoresis titration; conditions: reference: unphosphorylated miniHMM; remark: listed apart in the source
[9] = biological target: T1, C5C7 segment of cMyBP-C; experiment: MST; Monolith NT.115; 100 nmol/l Alexa647-labelled protein fixed, partner titrated; 20 mmol/l Mops pH 7, 1 mmol/l MgCl2, 50 mmol/l KCl, 1 mmol/l DTT, 0.05% Tween-20; conditions: both partners purified
[10] = biological target: T2, C0C1 fragment of cMyBP-C (UniProt Q14896 1-258); experiment: as above; conditions: both partners purified
T2 construct: also called C0-P/A-C1; source: E. coli BL21(DE3)-RIPL, purified (HisTrapFF, TEV, ion exchange); not shown: His tag, N-terminal, cleaved
T2 sequence (Q14896 1-258): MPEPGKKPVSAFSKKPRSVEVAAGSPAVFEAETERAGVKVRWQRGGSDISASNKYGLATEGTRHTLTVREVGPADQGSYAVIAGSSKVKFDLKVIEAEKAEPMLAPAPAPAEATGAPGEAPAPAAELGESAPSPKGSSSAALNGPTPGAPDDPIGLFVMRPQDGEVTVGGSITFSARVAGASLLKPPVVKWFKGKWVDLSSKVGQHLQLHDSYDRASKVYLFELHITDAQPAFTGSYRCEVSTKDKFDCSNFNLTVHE

[11] = biological target: T3, bovine β-cardiac myosin S1 (bovine, UniProt Q9BE39 1-1935; P85100 1-199; Q3SZE5 1-166, Alexa 647-NHS label (chain and site not stated)); experiment: as above
T3 construct: β-cardiac myosin heavy chain (MHC), bovine, the part that lies in subfragment 1; essential light chain (ELC) of bovine cardiac myosin, labelled on the gel of isolated S1; regulatory light chain (RLC) of bovine cardiac myosin, labelled on the gel of isolated S1; the text says that an intact RLC neck region is not present in this S1; Used at 100 nmol/l as the Alexa647-labelled partner in MST; also …
T3 sequence (Q9BE39 whole entry, chain 1 of 2, the tested form may be a part): as the sequence (Q9BE39 whole entry, chain 1 of 2, the tested form may be a part) above
T3 sequence (P85100 whole entry, chain 2 of 2, the tested form may be a part): as the sequence (P85100 whole entry, chain 2 of 2, further chain, the tested form may be a part) above

[12] = biological target: T4, C0C2, cMyBP-C spanning domains C0 to C2 (UniProt Q14896 1-452); experiment: as above; conditions: both partners purified
T4 construct: also called N-terminal domains (NTD) of cMyBP-C; C0-P/A-C1-m-C2; source: E. coli BL21(DE3)-RIPL, purified (HisTrapFF, TEV, ion exchange); not shown: His tag, N-terminal, cleaved

[13] = biological target: T5, domain C2 of cMyBP-C (UniProt Q14896 362-452); experiment: as above; conditions: both partners purified
T5 construct: source: E. coli BL21(DE3)-RIPL, purified (HisTrapFF, TEV, ion exchange); not shown: His tag, N-terminal, cleaved
T5 sequence (Q14896 362-452): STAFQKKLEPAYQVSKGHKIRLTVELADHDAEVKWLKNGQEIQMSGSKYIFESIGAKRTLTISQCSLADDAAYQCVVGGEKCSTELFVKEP

[14] = biological target: T6, domain C0 of cMyBP-C (UniProt Q14896 1-101); experiment: as above; conditions: both partners purified
T6 construct: source: E. coli BL21(DE3)-RIPL, purified (HisTrapFF, TEV, ion exchange); not shown: His tag, N-terminal, cleaved
T6 sequence (Q14896 1-101): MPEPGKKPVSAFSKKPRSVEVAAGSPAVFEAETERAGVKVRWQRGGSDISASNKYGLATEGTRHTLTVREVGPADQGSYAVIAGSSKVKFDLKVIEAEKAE

[15] = biological target: T7, domain C1 of cMyBP-C (UniProt Q14896 151-258); experiment: as above; conditions: both partners purified
T7 construct: source: E. coli BL21(DE3)-RIPL, purified (HisTrapFF, TEV, ion exchange); not shown: His tag, N-terminal, cleaved

[16] = biological target: T8, C2C4 segment of cMyBP-C (UniProt Q14896 362-633); experiment: as above; conditions: both partners purified
T8 construct: also called C2–C3–C4; C2C4 module; source: E. coli BL21(DE3)-RIPL, purified (HisTrapFF, TEV, ion exchange); not shown: His tag, N-terminal, cleaved
T8 sequence (Q14896 362-633): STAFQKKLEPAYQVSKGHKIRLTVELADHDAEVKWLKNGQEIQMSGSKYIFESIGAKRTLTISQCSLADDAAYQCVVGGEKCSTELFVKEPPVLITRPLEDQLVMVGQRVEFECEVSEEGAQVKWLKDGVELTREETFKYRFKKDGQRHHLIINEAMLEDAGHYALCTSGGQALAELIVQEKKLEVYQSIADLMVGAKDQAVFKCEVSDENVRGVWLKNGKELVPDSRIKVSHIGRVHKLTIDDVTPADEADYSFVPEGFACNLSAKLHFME

[17] = biological target: miniHMM, recombinant fragment of human cardiac myosin containing the myosin S2Δ tail domain bound to two RLCs (human), P12883; experiment: MST; as the other MST titrations but pH adjusted to 6.2 for the isolated m-motif; 100 nmol/l Alexa647-labelled protein fixed
miniHMM, recombinant fragment of human cardiac myosin containing the myosin S2Δ tail domain bound to two RLCs (human), P12883, sequence (P12883 whole entry, stated change not applied, the tested form may be a part): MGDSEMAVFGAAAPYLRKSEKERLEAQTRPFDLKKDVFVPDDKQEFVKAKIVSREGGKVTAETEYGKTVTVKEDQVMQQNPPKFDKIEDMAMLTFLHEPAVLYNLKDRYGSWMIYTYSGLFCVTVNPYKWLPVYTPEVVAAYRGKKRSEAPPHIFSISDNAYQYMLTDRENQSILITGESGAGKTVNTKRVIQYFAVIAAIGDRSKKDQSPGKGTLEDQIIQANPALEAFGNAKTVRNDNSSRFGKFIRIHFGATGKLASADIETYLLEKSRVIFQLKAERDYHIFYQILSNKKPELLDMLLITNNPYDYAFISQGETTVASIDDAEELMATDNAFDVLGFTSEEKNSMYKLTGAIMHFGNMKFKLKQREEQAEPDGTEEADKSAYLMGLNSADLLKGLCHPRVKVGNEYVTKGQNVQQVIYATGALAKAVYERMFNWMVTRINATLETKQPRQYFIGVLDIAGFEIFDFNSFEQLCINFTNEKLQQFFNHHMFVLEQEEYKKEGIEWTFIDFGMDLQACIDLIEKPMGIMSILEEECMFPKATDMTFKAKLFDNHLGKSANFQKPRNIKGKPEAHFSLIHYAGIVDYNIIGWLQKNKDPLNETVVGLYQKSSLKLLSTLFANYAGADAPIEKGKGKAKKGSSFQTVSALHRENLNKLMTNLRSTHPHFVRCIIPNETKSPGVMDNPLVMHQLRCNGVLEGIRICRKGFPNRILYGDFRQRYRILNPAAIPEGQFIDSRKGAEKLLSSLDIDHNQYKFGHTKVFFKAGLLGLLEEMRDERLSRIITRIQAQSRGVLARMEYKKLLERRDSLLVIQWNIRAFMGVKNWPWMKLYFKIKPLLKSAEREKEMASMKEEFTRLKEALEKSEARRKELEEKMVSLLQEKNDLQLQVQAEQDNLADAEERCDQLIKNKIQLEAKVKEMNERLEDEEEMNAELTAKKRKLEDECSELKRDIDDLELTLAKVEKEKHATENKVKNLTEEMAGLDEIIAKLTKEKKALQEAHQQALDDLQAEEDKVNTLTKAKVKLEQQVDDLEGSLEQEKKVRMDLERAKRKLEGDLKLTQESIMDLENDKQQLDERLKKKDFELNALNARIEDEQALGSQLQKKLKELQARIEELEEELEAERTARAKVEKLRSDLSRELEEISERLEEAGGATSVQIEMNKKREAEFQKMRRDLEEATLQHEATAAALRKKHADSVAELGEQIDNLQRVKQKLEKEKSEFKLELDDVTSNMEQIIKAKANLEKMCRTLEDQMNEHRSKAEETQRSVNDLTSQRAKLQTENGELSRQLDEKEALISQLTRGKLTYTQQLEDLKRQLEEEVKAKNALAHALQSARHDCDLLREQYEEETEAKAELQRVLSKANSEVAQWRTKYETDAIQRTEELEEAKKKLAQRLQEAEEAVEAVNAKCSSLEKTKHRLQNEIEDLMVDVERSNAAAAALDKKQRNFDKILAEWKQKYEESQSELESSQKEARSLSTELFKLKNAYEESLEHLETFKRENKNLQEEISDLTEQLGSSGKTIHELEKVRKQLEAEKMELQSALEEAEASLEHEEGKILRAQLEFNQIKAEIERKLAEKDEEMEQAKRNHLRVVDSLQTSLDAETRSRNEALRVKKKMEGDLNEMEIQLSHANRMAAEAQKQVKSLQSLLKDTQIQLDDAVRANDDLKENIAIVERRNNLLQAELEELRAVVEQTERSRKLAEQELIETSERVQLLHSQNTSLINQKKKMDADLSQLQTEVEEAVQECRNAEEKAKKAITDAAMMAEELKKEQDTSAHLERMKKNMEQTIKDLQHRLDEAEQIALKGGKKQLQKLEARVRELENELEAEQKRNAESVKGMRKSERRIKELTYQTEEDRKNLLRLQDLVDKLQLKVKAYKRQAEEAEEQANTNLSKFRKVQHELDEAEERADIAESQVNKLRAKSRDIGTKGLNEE

[18] = biological target: T3, bovine β-cardiac myosin S1; experiment: as above; conditions: both partners purified
[19] = biological target: B1; experiment: as above; conditions: both partners purified

Kd [1]: 3.8 µM
Molecule: C0C1 fragment of cMyBP-C (from UniProt Q14896 1-258) (domain or fragment)

Kd [1]: 3.4 µM
Kd [2]: 6.5 µM
Molecule: C0C2, cMyBP-C spanning domains C0 to C2 (from UniProt Q14896 1-452) (domain or fragment)

Kd [1]: 2.2 µM
Molecule: C0C2-3P, tris-phosphorylated C0C2 (from UniProt Q14896 1-452) (domain or fragment)

Kd [1]: 0.51 µM
Molecule: C0C2-truncated cMyBP-C (ΔC0C2-cMyBP-C) (from UniProt Q14896 453-1274) (domain or fragment)

Kd [1]: 0.38 µM
Molecule: C2C4 segment of cMyBP-C (from UniProt Q14896 362-633) (domain or fragment)

EC50 [3]: 3.8 µM
Kd [1]: 0.77 µM
Molecule: C5C7 segment of cMyBP-C (from UniProt Q14896 645-967) (domain or fragment)

Kd [1]: 0.43 µM
Kd [2]: 73.9 µM
Molecule: C5C7-N755K (from UniProt Q14896 1-1274) (domain or fragment)

Kd [1]: 1.3 µM
Kd [2]: 59.1 µM
Molecule: C5C7-R820Q (from UniProt Q14896 1-1274) (domain or fragment)

Kd [1]: 0.61 µM
Kd [2]: 32.6 µM
Molecule: C5C7-R943Q (from UniProt Q14896 1-1274) (domain or fragment)

KD [4]: weaker; reference 3.4 ± 0.1
KD [5]: same; reference 3.4 ± 0.3
KD [6]: weaker; reference 2.7 ± 0.1
Molecule: cMyBP-C (cardiac myosin-binding protein C) C0C2 (C0-P/A-C1-m-C2) (from UniProt Q14896) PKA tris-phosphorylated C0C2-3P, IEC purified

Kd [1]: 91.3 µM
Molecule: domain C0 of cMyBP-C (from UniProt Q14896 1-101) (domain or fragment)

Kd [1]: 3.8 µM
Molecule: domain C1 of cMyBP-C (from UniProt Q14896 151-258) (domain or fragment)

Kd [1]: 42.3 µM
Molecule: domain C2 of cMyBP-C (from UniProt Q14896 362-452) (domain or fragment)

Kd [1]: 25 µM
Molecule: domain C3 of cMyBP-C (from UniProt Q14896 453-543) (domain or fragment)

Kd [1]: 2.5 µM
Molecule: domain C4 of cMyBP-C (from UniProt Q14896 544-633) (domain or fragment)

Kd [1]: 0.3 µM
Molecule: full-length cardiac myosin-binding protein C (cMyBP-C) (from UniProt Q14896 1-1274) (natural protein)

KD [7]: same; reference 3.4 ± 0.1
KD [8]: stronger; reference 9.7 ± 0.5
Molecule: myosin regulatory light chain (RLC) in miniHMM (from UniProt P10916) cMLCK-phosphorylated miniHMM

Molecule: B1
Kd [9]: 25.8 µM
Kd [10]: 199 µM
Kd [11]: 0.6 µM

Molecule: B2
Kd [12]: 3.4 µM
Kd [13]: 502 µM
Kd [9]: 3.2 µM
Kd [14]: 335 µM
Kd [10]: 10.3 µM
Kd [15]: 17 µM
Kd [16]: 4.7 µM

Molecule: B3
Kd [17]: 49.7 µM

Molecule: B4
Kd [18]: 183 µM
Kd [19]: 41.4 µM
